Test [1] concerns the target T1, human follicle-stimulating hormone receptor (FSHR) (human, UniProt P23945 18-695).
T1 construct: whole, on cells; also called huFSHR; hFSHR
T1 sequence (looked up): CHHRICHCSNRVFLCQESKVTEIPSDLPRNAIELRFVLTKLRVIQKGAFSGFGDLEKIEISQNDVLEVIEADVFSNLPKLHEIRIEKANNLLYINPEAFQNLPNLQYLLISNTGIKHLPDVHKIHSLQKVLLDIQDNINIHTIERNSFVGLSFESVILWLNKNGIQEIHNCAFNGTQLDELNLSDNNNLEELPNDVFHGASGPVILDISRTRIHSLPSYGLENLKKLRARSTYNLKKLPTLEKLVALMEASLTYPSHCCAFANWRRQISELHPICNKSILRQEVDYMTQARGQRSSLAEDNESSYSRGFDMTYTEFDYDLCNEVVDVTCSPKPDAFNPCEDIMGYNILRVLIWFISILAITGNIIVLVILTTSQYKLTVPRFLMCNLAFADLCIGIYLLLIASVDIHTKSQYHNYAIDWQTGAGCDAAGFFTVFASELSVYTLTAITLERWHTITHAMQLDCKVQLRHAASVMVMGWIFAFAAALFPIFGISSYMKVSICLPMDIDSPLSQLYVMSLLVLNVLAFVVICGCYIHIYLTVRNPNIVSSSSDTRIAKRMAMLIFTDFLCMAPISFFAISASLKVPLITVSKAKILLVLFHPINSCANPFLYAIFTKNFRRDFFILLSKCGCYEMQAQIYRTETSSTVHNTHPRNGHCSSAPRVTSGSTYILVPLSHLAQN
Briefly: immunofluorescence microscopy on fixed FSHR-L-cells. As for the experimental part: FSHR-L-cells and wild type L-cells were cultured at 37° C. on LabTeck 8-wells (10,000 cells/well) in DMEM containing 10% horse serum, 1 mM glutamine, 1 mM pyruvate in presence of 5% CO₂. When reached 70% confluence, the cells were washed with PBS (three times) and fixed with 4% paraformaldehyde in PBS (15 min at room temperature (RT)). The free aldehyde groups were quenched with 100 mM NH₄Cl in PBS for 15 min at RT (i.e. 20° C.). To block the nonspecific binding of antibodies the cells were incubated 1 hour at RT (i.e. 20° C.) with PBS (pH=7.4) containing 2% goat serum (blocking buffer). FSHR was detected by incubating cells with serial dilutions of the monoclonal primary antibodies 1, 2, 3, 4, and 5 (3 μg/ml−1 μg/ml—0.3 μg/ml−0.1 μg/ml, 0.03 μg/ml, and 0.01 μg/ml of blocking buffer) overnight at 4° C. and with goat anti-mouse IgG-Alexa 555 (Invitrogen #A21137; dilution 1:1000 in blocking buffer) for 1 hour at room temperature. The known FSHR323 antibody (INSERM-Transfert, Paris) was used as a positive IgG2a control (3 μg/ml) as previously described in Radu et al. 2010 [9]. The cell nuclei were detected by incubating cells for 10 min with DAPI (SIGMA-ALDRICH®#32670; dilution 1:1000 in PBS). The slides were mounted in Dako fluorescent mounting medium containing 15 mM sodium azide and examined with an Olympus microscope.

Test [2] addresses T1, human follicle-stimulating hormone …. Briefly: FACS on huFSHR L-cells, 4-fold serial dilutions, goat anti-mouse IgG-APC detection. As for the experimental part: (§1) In order to characterize and to check whether the IgGs anti human FSHR retain specificity for huFSHR and whether they bind to this receptor with higher affinity than known antibody, a binding FACS experiment using different IgGs (MABs) concentrations and huFSHR-L-cell and WT L-cells was performed. These cells were QCed for huFSHR expression.
(§2) The HuFSHR L-cells were prepared as previously described [Vannier et al 1996 [15]. Briefly, mouse L cells were co-transfected, using the calcium phosphate precipitate method, with the plasmid encoding the hFSHR (pSG5-hFSHR) and with the plasmid pSV-Neo, a vector which confers resistance to the antibiotic G 418. Neomycin-resistant cells were selected in DMEM supplemented with 10% fetal calf serum and G 418 (geneticin, SIGMA-ALDRICH®) (1 mg/mL). […] The transfected cells were maintained in medium containing G 418 (200 ig/mL) for further studies. The samples were 4-fold serial dilution of monoclonal antibodies and buffer: FACS buffer (1×PBS containing 0.4 g/l human albumin, pH 7.4).
(§3) 100 μl/well of goat anti-mouse IgG conjugated to APC (GAM-APC) (BD™ Bioscience, 1:500 dilution) was added to the cells and incubated for 30 min at 4° C., gently shaking

Test [3] shares this target. The experiment in a line: peroxidase immunohistochemistry on paraffin sections of human testis; this end is tied to antibody 4 by the example in the sentence (0.2 against 5 µg/ml). As for the experimental part: Immunohistochemistry: Serial 3-μm-thick sections of human testis tissue (n=30 sections) were cut, attached to SuperFrost slides, deparaffinized with xylene, […] gradually in ethanol and washed with running tap water for 60 min. Access to tissue antigen sites for antibody attachment was enhanced by incubating slides at 90° C. for 40 min with 10 mM citrate buffer, pH 6. After cooling at room temperature (RT) for 20 min, and after each subsequent step, slides were rinsed with PBS. To block endogenous peroxidase activity, the sections were incubated with 6% hydrogen peroxide (15 min at RT, i.e. 20° C.). Sodium borohydride (10 mg/ml PBS) was used to quench free aldehyde groups (15 min, RT i.e. 20° C.). Non-specific binding of antibodies was blocked by incubating slides with 2% goat serum in Phosphate Buffer Saline (PBS) (blocking buffer) at 20° C. (RT) for 2 h. The slides were incubated with serial dilutions of the monoclonal primary antibodies 4, 2, 3 (5 μg/ml−1 μg/ml−0.2 μg/ml−0.04 μg/ml of blocking buffer) in blocking buffer overnight at 4° C. The known FSHR323 antibody (INSERM-Transfert, Paris) was used as a positive IgG2a control. […] The biotinylated goat anti-mouse IgG (Fc-specific) antibody (dilution 1:200), used as secondary antibody, was detected by using streptavidin coupled to horseradish peroxidase (dilution 1:500). […]

Test [4] has the same target. The experiment in a line: FACS on huFSHR L-cells; this end is tied to antibody 2 by Table 2 (1.582/0.08678). The method, then:
as §1, §2, §3

The target is the same in test [5]. Briefly: FACS on huFSHR L-cells; this end is tied to antibody 1 by Table 2 (1.582/0.2112). The method, then: as §1, §2, §3

Positions count from the first letter of the chain named.

B1: mouse IgG2a anti human FSHR antibody 3 (VH CDR1 of SEQ ID NO 3, VH CDR2 of SEQ ID NO 8) (antibody, V domains shown)
VH: QVQLQQSGAELMKPGASVKISCKATGYTFSKQWLLWVKQRPGHGLEWIGEIFPRNGNTNYNEKFKGKATFTADTSSSTAYMQLSSLTSEDSAVYYCARGPTASGYAMDYWGQGTSVTVSS
VL: DVLMTQTPLSLPVSLGDQASISCRSSQSIVHRNGNTYLEWYLQKPGQSPKLLIYKVSNRFSGVPDRFSGSGSGTDFTLKIIRVEAEDLGVYYCFQGSHVPFTFGSGTKLEIK
notes: Mouse IgG2a heavy constant domains and mouse C kappa; also called sample 3; mouse IgG2 FSHR323 variant
For the molecule B1, the “fold lower labelling concentration than the optimal concentration of FSHR323” value in test [1] stood at 33 fold. The molecule further returned an EC50 in test [2] of 0.0893 nM.

B2: mouse IgG2a anti human FSHR antibody 4 (VH CDR1 of SEQ ID NO 4, VH CDR2 of SEQ ID NO 9) (antibody, V domains shown)
VH: B1 VH with K31R, Q32S, L34I, F52Y, R54Q, G56Q
VL: B1 VL
notes: Mouse IgG2a heavy constant domains and mouse C kappa; also called sample 4; mouse IgG2 FSHR323 variant
As for B2, the “fold lower labelling concentration than the optimal concentration of FSHR323” value in test [1] was determined as 33 fold. Moreover, in test [2], the EC50 was found to be 0.098 nM. In test [3], the “fold higher affinity than FSHR323 (by optimal IHC dilution)” value amounted to 25 fold.

B3: mouse IgG2a anti human FSHR antibody 5 (VH CDR1 of SEQ ID NO 5, VH CDR2 of SEQ ID NO 10) (antibody, V domains shown)
VH: B1 VH with Q32Y, L34T, L35Q, F52Y
VL: B1 VL
notes: Mouse IgG2a heavy constant domains and mouse C kappa; also called sample 5; mouse IgG2 FSHR323 variant
With B3, the “fold lower labelling concentration than the optimal concentration of FSHR323” value in test [1] worked out at 33 fold. The same molecule came in with an EC50 in test [2] of 0.101 nM.

B4: mouse IgG2a anti human FSHR antibody 2 (VH CDR1 of SEQ ID NO 2, VH CDR2 of SEQ ID NO 7) (antibody, V domains shown)
VH: B1 VH with K31R, L34V, L35I, F52L
VL: B1 VL
notes: Mouse IgG2a heavy constant domains and mouse C kappa; also called sample 2; mouse IgG2 FSHR323 variant
In the case of B4, the “fold lower labelling concentration than the optimal concentration of FSHR323” value in test [1] came to 33 fold. For the same molecule, in test [2], the midpoint of the response, the EC50, lay at 0.0868 nM. The “fold improvement of EC50 against the known antibody” value in test [4] worked out at 18.2 fold.

B5: mouse IgG2a anti human FSHR antibody 1 (VH CDR1 of SEQ ID NO 1, VH CDR2 of SEQ ID NO 6) (antibody, V domains shown)
VH: B1 VH with K31Q, Q32F, W33Y, L34V, L35G, N55T
VL: B1 VL
notes: VH was cloned in frame with mouse IgG2a heavy constant domains and the V kappa with mouse C kappa; also called sample 1; mouse IgG2 FSHR323 variant
With B5, the “fold lower labelling concentration than the optimal concentration of FSHR323” value in test [1] is 33 fold. The EC50 in test [2] came out at 0.211 nM. Besides, in test [5], the “fold improvement of EC50 against the known antibody” value came out at 7.5 fold.

Broadly, the EC50 is the concentration needed to bring the measured effect to its halfway point. Lower therefore signals higher potency in that assay.
